{"source": "IntAct's records for PubMed 22070932", "parents": {"B1": {"name": "DAZ-associated protein 2 (Homo sapiens), Q15038 (parent)", "chain": "MNSKGQYPTQPTYPVQPPGNPVYPQTLHLPQAPPYTDAPPAYSELYRPSFVHPGAATVPTMSAAFPGASLYLPMAQSVAVGPLGSTIPMAYYPVGPIYPPGSTVLVEGGYDAGARFGAGATAGNIPPPPPGCPPNAAQLAVMQGANVLVTQRKGNFFMGGSDGGYTIW", "partner": "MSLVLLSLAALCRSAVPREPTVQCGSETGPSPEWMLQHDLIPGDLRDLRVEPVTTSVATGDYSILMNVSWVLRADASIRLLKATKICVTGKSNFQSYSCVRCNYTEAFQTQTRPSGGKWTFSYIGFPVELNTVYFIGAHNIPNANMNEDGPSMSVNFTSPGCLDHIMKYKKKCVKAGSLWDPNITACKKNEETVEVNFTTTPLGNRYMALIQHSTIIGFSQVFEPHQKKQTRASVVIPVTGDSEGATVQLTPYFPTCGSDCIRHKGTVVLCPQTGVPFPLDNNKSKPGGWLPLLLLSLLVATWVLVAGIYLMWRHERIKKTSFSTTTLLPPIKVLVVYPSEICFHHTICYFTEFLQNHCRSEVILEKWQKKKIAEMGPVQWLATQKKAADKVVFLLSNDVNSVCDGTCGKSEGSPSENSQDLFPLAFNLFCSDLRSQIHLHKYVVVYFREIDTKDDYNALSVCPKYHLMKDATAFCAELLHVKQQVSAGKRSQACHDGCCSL"}, "B2": {"name": "DAZ-associated protein 2 (Homo sapiens), Q15038 (parent)", "chain": "B1 chain"}}, "data": [{"variants_of": "B1", "conditions": "with IL17RB", "values": [{"variant": "Y42A;Y165A", "effect of a mutation on the interaction": "disrupting interaction strength"}, {"variant": "Y42A", "effect of a mutation on the interaction": "decreasing interaction strength"}, {"variant": "Y165A", "effect of a mutation on the interaction": "decreasing interaction strength"}]}, {"variants_of": "B2", "conditions": "with smuf2_human SMURF2, Q9HAU4", "values": [{"variant": "Y42A", "effect of a mutation on the interaction": "disrupting interaction strength"}]}]}
